Ends that are not written are not given here. Peptide text beside a SMILES is read from it. * marks the point of attachment. Biotin = O=C1N[C@H]2[C@H](CS[C@H]2CCCCC(=O)*)N1

What all share (assay): G' assay (10 uM PL peptide), results of TABLE 7 and TABLE 12
What all share (assay type): binding

Experiment [1] deals with T1, PDZ protein (GST-PDZ fusion) (Homo sapiens, UniProt O95049).
T1 construct: made in house; host or cells: E. coli (DH5alpha, BL21 or JM109)
T1 sequence (O95049 1-919): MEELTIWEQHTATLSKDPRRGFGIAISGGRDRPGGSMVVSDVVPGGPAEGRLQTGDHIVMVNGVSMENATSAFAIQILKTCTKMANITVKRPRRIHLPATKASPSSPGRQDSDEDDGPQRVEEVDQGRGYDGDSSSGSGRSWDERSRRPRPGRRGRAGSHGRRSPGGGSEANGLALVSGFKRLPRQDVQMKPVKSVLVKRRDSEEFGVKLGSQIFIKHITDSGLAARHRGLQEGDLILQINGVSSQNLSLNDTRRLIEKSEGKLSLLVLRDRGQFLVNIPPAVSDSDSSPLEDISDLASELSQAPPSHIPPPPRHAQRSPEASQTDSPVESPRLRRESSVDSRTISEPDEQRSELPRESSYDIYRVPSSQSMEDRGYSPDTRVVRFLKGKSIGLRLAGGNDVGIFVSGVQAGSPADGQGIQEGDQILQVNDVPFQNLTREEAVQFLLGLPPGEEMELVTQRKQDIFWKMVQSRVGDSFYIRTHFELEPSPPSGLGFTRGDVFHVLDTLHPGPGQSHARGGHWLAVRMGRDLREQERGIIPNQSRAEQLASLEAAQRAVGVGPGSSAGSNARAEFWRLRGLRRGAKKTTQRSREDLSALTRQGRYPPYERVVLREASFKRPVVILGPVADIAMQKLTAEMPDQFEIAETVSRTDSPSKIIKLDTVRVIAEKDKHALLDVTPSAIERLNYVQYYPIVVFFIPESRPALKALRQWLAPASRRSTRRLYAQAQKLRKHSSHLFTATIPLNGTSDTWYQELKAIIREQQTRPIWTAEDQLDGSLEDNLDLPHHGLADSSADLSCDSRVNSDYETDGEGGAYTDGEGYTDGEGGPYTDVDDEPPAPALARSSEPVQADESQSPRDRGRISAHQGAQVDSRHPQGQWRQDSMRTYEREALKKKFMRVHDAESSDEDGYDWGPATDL
The procedure, abridged:
(§1)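 Same steps as the G-zero format, apart from a peptide concentration of 10 uM in place of 20 uM in step 2. Amino-terminally biotinylated PL peptides bind GST-PDZ fusions, and retained peptide is quantified by 450 nm absorbance.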

The target in experiment [2] is T2, PDZ protein (GST-PDZ fusion) (Homo sapiens, UniProt Q9UPQ7).
T2 construct: made in house; host or cells: E. coli (DH5alpha, BL21 or JM109)
T2 sequence (Q9UPQ7 1-1066): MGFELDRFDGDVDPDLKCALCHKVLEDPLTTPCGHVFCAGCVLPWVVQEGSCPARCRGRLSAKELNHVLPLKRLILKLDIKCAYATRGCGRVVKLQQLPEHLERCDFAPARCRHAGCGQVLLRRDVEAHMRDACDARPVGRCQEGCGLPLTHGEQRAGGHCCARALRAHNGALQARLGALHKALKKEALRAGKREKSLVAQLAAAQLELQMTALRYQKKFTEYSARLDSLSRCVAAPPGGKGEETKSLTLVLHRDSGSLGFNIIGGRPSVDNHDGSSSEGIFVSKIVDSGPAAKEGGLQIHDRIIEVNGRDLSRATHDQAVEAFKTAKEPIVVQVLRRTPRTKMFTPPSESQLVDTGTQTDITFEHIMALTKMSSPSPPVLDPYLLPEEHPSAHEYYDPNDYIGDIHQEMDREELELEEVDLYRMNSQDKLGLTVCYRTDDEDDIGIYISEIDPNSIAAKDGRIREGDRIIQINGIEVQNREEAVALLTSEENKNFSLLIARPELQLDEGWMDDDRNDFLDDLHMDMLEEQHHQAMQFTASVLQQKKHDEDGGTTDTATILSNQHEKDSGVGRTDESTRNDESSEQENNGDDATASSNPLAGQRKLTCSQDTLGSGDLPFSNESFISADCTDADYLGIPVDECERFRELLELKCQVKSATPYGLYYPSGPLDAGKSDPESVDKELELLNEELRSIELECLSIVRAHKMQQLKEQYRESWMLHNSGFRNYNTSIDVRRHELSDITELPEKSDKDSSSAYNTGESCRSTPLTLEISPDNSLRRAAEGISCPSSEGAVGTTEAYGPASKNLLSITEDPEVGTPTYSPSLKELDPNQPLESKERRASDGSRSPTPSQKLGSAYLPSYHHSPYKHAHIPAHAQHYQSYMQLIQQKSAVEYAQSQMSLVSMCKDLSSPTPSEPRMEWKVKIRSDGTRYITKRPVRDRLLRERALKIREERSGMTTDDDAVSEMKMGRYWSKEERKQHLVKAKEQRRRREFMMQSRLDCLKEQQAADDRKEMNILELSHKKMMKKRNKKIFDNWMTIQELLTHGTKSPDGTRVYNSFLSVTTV
The conditions noted are these: PDZ KIAA1095, PDZ Domain 1. In short, it runs like this: as §1

The target of experiment [3] is T3, PDZ protein (GST-PDZ fusion) (Homo sapiens, UniProt P55196).
T3 construct: made in house; host or cells: E. coli (DH5alpha, BL21 or JM109)
T3 sequence (P55196 whole entry, the tested form may be a part): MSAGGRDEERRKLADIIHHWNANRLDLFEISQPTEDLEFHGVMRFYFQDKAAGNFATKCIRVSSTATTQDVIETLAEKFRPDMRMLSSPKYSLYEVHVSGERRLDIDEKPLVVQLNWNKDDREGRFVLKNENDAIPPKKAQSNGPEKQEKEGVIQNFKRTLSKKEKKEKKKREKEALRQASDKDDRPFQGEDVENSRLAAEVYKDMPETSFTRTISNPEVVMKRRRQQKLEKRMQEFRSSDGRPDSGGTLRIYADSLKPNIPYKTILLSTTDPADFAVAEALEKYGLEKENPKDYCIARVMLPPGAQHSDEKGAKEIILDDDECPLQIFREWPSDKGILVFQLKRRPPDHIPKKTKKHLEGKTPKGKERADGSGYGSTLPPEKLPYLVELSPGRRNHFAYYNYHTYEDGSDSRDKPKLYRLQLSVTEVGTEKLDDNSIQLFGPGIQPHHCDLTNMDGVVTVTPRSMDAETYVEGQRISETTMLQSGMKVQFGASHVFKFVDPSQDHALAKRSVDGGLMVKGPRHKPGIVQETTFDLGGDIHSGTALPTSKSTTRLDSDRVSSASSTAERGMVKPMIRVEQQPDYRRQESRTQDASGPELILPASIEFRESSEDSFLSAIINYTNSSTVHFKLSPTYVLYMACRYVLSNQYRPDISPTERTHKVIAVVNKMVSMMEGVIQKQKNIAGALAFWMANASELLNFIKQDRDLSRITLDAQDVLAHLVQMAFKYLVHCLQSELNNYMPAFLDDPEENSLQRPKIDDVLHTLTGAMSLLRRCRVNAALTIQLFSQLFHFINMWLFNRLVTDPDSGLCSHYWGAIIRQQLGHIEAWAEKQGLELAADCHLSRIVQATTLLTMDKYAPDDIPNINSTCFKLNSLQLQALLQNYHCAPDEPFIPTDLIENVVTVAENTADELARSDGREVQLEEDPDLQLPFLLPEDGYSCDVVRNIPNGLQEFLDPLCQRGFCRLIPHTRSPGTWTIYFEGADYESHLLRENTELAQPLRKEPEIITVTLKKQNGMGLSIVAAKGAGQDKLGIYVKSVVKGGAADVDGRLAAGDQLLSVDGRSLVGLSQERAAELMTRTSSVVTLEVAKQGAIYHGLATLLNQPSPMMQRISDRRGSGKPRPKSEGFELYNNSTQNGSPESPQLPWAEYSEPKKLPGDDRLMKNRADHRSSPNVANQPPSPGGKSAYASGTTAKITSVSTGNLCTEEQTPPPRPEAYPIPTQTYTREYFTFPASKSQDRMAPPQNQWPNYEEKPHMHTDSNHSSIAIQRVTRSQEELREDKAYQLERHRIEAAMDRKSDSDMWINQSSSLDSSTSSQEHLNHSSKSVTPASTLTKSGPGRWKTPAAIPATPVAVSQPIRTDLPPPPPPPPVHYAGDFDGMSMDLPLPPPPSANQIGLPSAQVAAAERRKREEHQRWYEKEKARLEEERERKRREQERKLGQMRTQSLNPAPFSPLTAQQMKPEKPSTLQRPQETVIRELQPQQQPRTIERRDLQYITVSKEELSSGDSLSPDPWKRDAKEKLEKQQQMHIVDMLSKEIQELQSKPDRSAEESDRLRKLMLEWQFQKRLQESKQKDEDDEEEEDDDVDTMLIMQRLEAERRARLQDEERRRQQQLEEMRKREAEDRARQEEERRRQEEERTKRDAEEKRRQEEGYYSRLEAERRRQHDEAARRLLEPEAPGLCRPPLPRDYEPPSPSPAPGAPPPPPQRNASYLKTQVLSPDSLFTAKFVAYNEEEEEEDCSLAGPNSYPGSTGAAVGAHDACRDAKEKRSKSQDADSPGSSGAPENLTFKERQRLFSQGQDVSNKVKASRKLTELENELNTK
The conditions noted are these: PDZ AF6, PDZ Domain 1. The procedure, abridged: as §1

With “PYSELNYETSHYPASPDSWV (Biotin-PYSELNYETSHYPASPDSWV) [catenin - delta 2]”, the Classification in experiment [1] (PDZ ZO-3, PDZ Domain 3) is on record as 3 (A450 nm 2-3).
As to TQGFPGPATWRRISSLESEV, in experiment [2], the Classification was 1 (A450 nm 0-1).
Consider `CC(C)C[C@H](NC(=O)[C@H](C)NC(=O)[C@@H](NC(=O)[C@H](CCC(=O)O)NC(=O)[C@H](CCCNC(=N)N)NC(=O)[C@H](CCCNC(=N)N)NC(=O)CNC(=O)[C@H](CCC(N)=O)NC(=O)[C@H](CC(C)C)NC(=O)[C@H](CCCNC(=N)N)NC(=O)CNC(=O)CNC(=O)[C@H](CCCNC(=N)N)NC(=O)[C@H](C)NC(=O)[C@H](CO)NC(=O)[C@H](CCCNC(=N)N)NC(=O)CNC(=O)CNC(=O)[C@H](C)NC(=O)[C@H](C)NC(=O)CCCC[C@@H]1SC[C@@H]2NC(=O)N[C@@H]21)[C@@H](C)O)C(=O)O` [HPV E6 33 (modified)] (Biotin-AAGGRSARGGRLQGRRETAL-OH; C-terminus assumed), for which the Classification in experiment [2] is recorded as 5 (A450 nm of 4 more than 2× repeated).
“KTMPAATYRLLTGQEQPVYL (Biotin-KTMPAATYRLLTGQEQPVYL) [MINT-3]”: the Classification in experiment [3] is recorded as 1 (A450 nm 0-1).
“A2AA_HUMAN (modified) (Biotin-HDFRRAFKKILARGDRKRIV; not fully specified)”: the Classification in experiment [1] (PDZ ZO-3, PDZ Domain 2) is given as 3 (A450 nm 2-3).
For `CC[C@H](C)[C@H](NC(=O)[C@H](Cc1ccc(O)cc1)NC(=O)[C@@H](NC(=O)[C@@H]1CCCN1C(=O)[C@H](CCC(N)=O)NC(=O)[C@H](CCC(=O)O)NC(=O)[C@H](CCC(N)=O)NC(=O)[C@H](C)NC(=O)[C@@H](NC(=O)[C@H](CC(C)C)NC(=O)[C@H](CC(C)C)NC(=O)[C@H](CCCNC(=N)N)NC(=O)[C@H](Cc1ccc(O)cc1)NC(=O)[C@H](CCSC)NC(=O)[C@H](C)NC(=O)[C@H](C)NC(=O)[C@@H]1CCCN1C(=O)[C@H](CCSC)NC(=O)[C@@H](NC(=O)[C@H](CCCCN)NC(=O)CCCC[C@@H]1SC[C@@H]2NC(=O)N[C@@H]21)[C@@H](C)O)[C@@H](C)O)C(C)C)C(=O)O` [MINT-1] (Biotin-KTMPAAMYRLLTAQEQPVYI-OH; C-terminus assumed), the Classification in experiment [1] (PDZ ZO-3, PDZ Domain 1) is 2 (A450 nm 1-2); in experiment [1] (PDZ ZO-3, PDZ Domain 3), 1 (A450 nm 0-1).
As to “GPVPGEPAKPKTSAHHATFV (Biotin-GPVPGEPAKPKTSAHHATFV)”, the Classification in experiment [3] is given as 1 (A450 nm 0-1).
With `CC[C@H](C)[C@H](NC(=O)CNC(=O)[C@H](CO)NC(=O)[C@H](Cc1ccccc1)NC(=O)[C@@H](NC(=O)[C@H](CS)NC(=O)CNC(=O)CNC(=O)[C@H](C)NC(=O)[C@@H]1CCCN1C(=O)[C@@H](NC(=O)[C@@H]1CCCN1C(=O)CCCC[C@@H]1SC[C@@H]2NC(=O)N[C@@H]21)[C@@H](C)CC)[C@@H](C)O)C(=O)N[C@@H](Cc1ccccc1)C(=O)N1CCC[C@H]1C(=O)N[C@H](C(=O)N[C@@H](CC(C)C)C(=O)N[C@H](C(=O)N[C@@H](CO)C(=O)N1CCC[C@H]1C(=O)N[C@@H](CC(C)C)C(=O)O)[C@@H](C)O)[C@@H](C)O` [KIA 1481] (Biotin-PIPAGGCTFSGIFPTLTSPL-OH; C-terminus assumed), in experiment [2], the Classification is on record as 1 (A450 nm 0-1).
In the case of “ELLQFCRTPNPALKNGQYWV (Biotin-ELLQFCRTPNPALKNGQYWV)”, the Classification in experiment [3] is recorded as 5 (A450 nm of 4 more than 2× repeated); in experiment [1] (PDZ ZO-3, PDZ Domain 1), 2 (A450 nm 1-2); in experiment [1] (PDZ ZO-3, PDZ Domain 3) it was 5 (A450 nm of 4 more than 2× repeated).
With `CSCC[C@H](NC(=O)[C@H](C)NC(=O)[C@H](CCCNC(=N)N)NC(=O)CNC(=O)[C@@H](NC(=O)[C@H](Cc1c[nH]c2ccccc12)NC(=O)[C@H](CCCNC(=N)N)NC(=O)CNC(=O)CCCC[C@@H]1SC[C@@H]2NC(=O)N[C@@H]21)[C@@H](C)O)C(=O)N[C@@H](CO)C(=O)N[C@@H](C)C(=O)N[C@@H](Cc1c[nH]c2ccccc12)C(=O)N[C@@H](CCCCN)C(=O)N1CCC[C@H]1C(=O)N[C@H](C(=O)N[C@@H](CCCNC(=N)N)C(=O)N[C@@H](CCCNC(=N)N)C(=O)N[C@@H](CCC(=O)O)C(=O)N[C@H](C(=O)N[C@@H](CCC(=O)O)C(=O)N[C@H](C(=O)O)C(C)C)[C@@H](C)O)[C@@H](C)O` [HPV E6 #35 (modified)] (Biotin-GRWTGRAMSAWKPTRRETEV-OH; C-terminus assumed), in experiment [2], the Classification was 4 (A450 nm 3-4).
`CC(C)C[C@H](NC(=O)[C@H](CCCNC(=N)N)NC(=O)CNC(=O)CNC(=O)[C@H](CCCNC(=N)N)NC(=O)[C@H](C)NC(=O)[C@@H]1CCCN1C(=O)[C@H](CCCNC(=N)N)NC(=O)CNC(=O)CNC(=O)[C@@H](NC(=O)[C@H](C)NC(=O)CCCC[C@@H]1SC[C@@H]2NC(=O)N[C@@H]21)C(C)C)C(=O)N[C@@H](CCC(N)=O)C(=O)NCC(=O)N[C@@H](CCCNC(=N)N)C(=O)N[C@@H](CCCNC(=N)N)C(=O)N[C@@H](CCC(N)=O)C(=O)N[C@H](C(=O)N[C@@H](CCC(N)=O)C(=O)N[C@H](C(=O)O)C(C)C)[C@@H](C)O` [HPV E6 58 (modified)] (Biotin-AVGGRPARGGRLQGRRQTQV-OH; C-terminus assumed): the Classification in experiment [2] is listed as 1 (A450 nm 0-1).
On to `CC[C@H](C)[C@H](NC(=O)[C@H](Cc1ccc(O)cc1)NC(=O)[C@H](CC(C)C)NC(=O)[C@H](CCC(N)=O)NC(=O)[C@H](Cc1c[nH]cn1)NC(=O)[C@H](CO)NC(=O)[C@H](C)NC(=O)[C@H](CC(C)C)NC(=O)[C@@H](NC(=O)[C@H](CC(=O)O)NC(=O)[C@H](CCSC)NC(=O)[C@H](Cc1ccccc1)NC(=O)[C@@H]1CCCN1C(=O)[C@H](CCCNC(=N)N)NC(=O)[C@@H](NC(=O)[C@H](CC(C)C)NC(=O)[C@H](CC(N)=O)NC(=O)[C@H](CC(=O)O)NC(=O)[C@@H](NC(=O)[C@H](CO)NC(=O)CCCC[C@@H]1SC[C@@H]2NC(=O)N[C@@H]21)[C@@H](C)O)C(C)C)[C@@H](C)O)C(=O)O` [presenilin-2] (Biotin-STDNLVRPFMDTLASHQLYI-OH; C-terminus assumed), for which the Classification in experiment [3] was 3 (A450 nm 2-3).
“KTMPAAMFRLLTGQETPLYI (Biotin-KTMPAAMFRLLTGQETPLYI) [MINT-2]”: in experiment [1] (PDZ ZO-3, PDZ Domain 3), the Classification was 1 (A450 nm 0-1).

These data come from patent US20050282743A1, “Molecular interactions in cells” (Arbor Vita Corporation, priority 2001, published 2005).
